These results are taken from US20230079955A1 (POSEIDA THERAPEUTICS, published 2023).

T1: His-tagged p62/p58 MUC1 protein (UniProt P15941 1036-1155, limits assumed)
T1 construct: domain: p62/p58; Soluble staining reagent for the CAR on T cells, detected with an anti-His secondary antibody; not shown: His tag
T1 sequence (looked up): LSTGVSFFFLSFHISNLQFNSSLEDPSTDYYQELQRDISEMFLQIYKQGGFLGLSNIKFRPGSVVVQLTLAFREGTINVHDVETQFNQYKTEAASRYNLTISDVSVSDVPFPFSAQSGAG

B1: "L2H2" CAR (humanized MUC1-C scFv chimeric antigen receptor) (other)
chain: EILLTQSPDFQSVTPKEKVTFTCRASQSIGTSIHWYQQKPNQSPKLLIKYASESISGVPSRFSGSGSGTDFTLTINSVESEDIADYYCQQSNNWPLTFGQGTKLEIKGGGGSGGGGSGGGGSQVQLVQSGAEVKKPGSSVKISCKTSGYAFSNFWMNWVRQAPGQGLEWIGQIYPGDGDTNYNGKFKGRVTLTADKSTSTAYMELSSLRSEATAVYFCARSYYRSAWFAYWGQGTLVTVSSTTTPAPRPPTPAPTIASQPLSLRPEACRPAAGGAVHTRGLDFACDIYIWAPLAGTCGVLLLSLVITLYCKRGRKKLLYIFKQPFMRPVQTTQEEDGCSCRFPEEEEGGCELRVKFSRSADAPAYKQGQNQLYNELNLGRREEYDVLDKRRGRDPEMGGKPRRKNPQEGLYNELQKDKMAEAYSEIGMKGERRRGKGHDGLYQGLSTATKDTYDALHMQALPPR
B2: "L3H4" CAR (humanized MUC1-C scFv chimeric antigen receptor) (other)
chain: B1 chain with T74S, R160K, A162R, V190A, T198S
notes: also called 13H4
B3: "L1H2" CAR (humanized MUC1-C scFv chimeric antigen receptor) (other)
chain: B1 chain with V78L, D85T
B4: "L1H4" CAR (humanized MUC1-C scFv chimeric antigen receptor) (other)
chain: B1 chain with V78L, D85T, R160K, A162R, V190A, T198S
B5: "L3H3" CAR (humanized MUC1-C scFv chimeric antigen receptor) (other)
chain: B1 chain with T74S, R160K, A162R, V190A
B6: "L1H2B" CAR (humanized MUC1-C scFv chimeric antigen receptor) (other)
chain: B1 chain with V78L, D85T, G184A
B7: "L3H2" CAR (humanized MUC1-C scFv chimeric antigen receptor) (other)
chain: B1 chain with T74S
notes: also called 13H2
B8: "L1H3" CAR (humanized MUC1-C scFv chimeric antigen receptor) (other)
chain: B1 chain with V78L, D85T, R160K, A162R, V190A
B9: "L2H3" CAR (humanized MUC1-C scFv chimeric antigen receptor) (other)
chain: B1 chain with R160K, A162R, V190A
B10: "L2H4" CAR (humanized MUC1-C scFv chimeric antigen receptor) (other)
chain: B1 chain with R160K, A162R, V190A, T198S

Substitutions are numbered along the chain they refer to.

One assay concerns the target T1, His-tagged p62/p58 MUC1 protein. Kind of assay: flow cytometry of CAR-T cells stained with His-tagged p62/p58 MUC1 protein and anti-His secondary antibody, day 19. From the text:
(§1) MUC1-C candidate CARs were subcloned into a tricistronic piggyBac transposon (EF1alpha promoter-iC9 Safety Switch-T2A-MUC1-C CAR-T2A-DHFR selection gene) and CAR-T cells were produced using pan T cells from a normal human blood donor as described herein (FIG. 6). Expression of each candidate CAR on the surface of piggyBac-modified cells was confirmed by FACS staining 19 days post-transposon delivery using an His-tagged p62/p58 MUC1 protein, followed by anti-His secondary antibody (FIG. 6). Specifically, cells were examined by flow cytometry for surface-expression of CAR on either mock transposed (blue) or anti-CD3/CD28 bead re-activated (red) cells (activation for 48 hours) that received transposon encoding CAR and data are shown as overlaid histograms; numbers represent percentage of cells expressing CAR on cell surface. All candidate MUC1-C CARs were expressed and detected on the surface of piggyBac-produced CAR-T cells (FIG. 7).
For orientation: In flow cytometry, cells or beads pass a laser one at a time.
In the case of B1, the “MFI (non-activated cells)” value is 717 MFI.
The same measure, in the same setting: for B2 the value was 695 MFI.
With B3, the “MFI (non-activated cells)” value was 720 MFI.
The same measure, in the same setting: the figure for B4 is 737 MFI.
Still for that read-out and setting: the figure for B5 is 696 MFI; for B6 it is 714 MFI.
Consider B7, for which the “MFI (non-activated cells)” value was found to be 726 MFI.
On to B8, for which the “MFI (non-activated cells)” value came to 743 MFI.
On the same count and under the same terms, for B9 the value was 770 MFI; for B10, 729 MFI.

The next assay has the same target. Kind of assay: flow cytometry of CAR-T cells (anti-CD3/CD28 bead re-activated, 48 hours) stained with His-tagged p62/p58 MUC1 protein and anti-His secondary antibody.
Text: as §1
For the molecule B1, the “MFI (activated cells)” value was 3830 MFI.
Same read-out and setting: for B2 the value was 1960 MFI; for B3, 3030 MFI.
The same measure, in the same setting: the figure for B4 is 2510 MFI; for B5 it is 2580 MFI.
On the same count and under the same terms, for B6 the value was 2990 MFI; for B7, 3620 MFI.
As for B8, the “MFI (activated cells)” value is 3320 MFI.
The same measure, in the same setting: the figure for B9 is 2880 MFI; for B10 it is 3020 MFI.

For the next assay, the target named is MUC1 on MDA-MB-468.lucGFP cells (UniProt P15941 24-1255). As to the kind of experiment: cell-based or functional assay.
MUC1 on MDA-MB-468.lucGFP cells, sequence (P15941 24-1255): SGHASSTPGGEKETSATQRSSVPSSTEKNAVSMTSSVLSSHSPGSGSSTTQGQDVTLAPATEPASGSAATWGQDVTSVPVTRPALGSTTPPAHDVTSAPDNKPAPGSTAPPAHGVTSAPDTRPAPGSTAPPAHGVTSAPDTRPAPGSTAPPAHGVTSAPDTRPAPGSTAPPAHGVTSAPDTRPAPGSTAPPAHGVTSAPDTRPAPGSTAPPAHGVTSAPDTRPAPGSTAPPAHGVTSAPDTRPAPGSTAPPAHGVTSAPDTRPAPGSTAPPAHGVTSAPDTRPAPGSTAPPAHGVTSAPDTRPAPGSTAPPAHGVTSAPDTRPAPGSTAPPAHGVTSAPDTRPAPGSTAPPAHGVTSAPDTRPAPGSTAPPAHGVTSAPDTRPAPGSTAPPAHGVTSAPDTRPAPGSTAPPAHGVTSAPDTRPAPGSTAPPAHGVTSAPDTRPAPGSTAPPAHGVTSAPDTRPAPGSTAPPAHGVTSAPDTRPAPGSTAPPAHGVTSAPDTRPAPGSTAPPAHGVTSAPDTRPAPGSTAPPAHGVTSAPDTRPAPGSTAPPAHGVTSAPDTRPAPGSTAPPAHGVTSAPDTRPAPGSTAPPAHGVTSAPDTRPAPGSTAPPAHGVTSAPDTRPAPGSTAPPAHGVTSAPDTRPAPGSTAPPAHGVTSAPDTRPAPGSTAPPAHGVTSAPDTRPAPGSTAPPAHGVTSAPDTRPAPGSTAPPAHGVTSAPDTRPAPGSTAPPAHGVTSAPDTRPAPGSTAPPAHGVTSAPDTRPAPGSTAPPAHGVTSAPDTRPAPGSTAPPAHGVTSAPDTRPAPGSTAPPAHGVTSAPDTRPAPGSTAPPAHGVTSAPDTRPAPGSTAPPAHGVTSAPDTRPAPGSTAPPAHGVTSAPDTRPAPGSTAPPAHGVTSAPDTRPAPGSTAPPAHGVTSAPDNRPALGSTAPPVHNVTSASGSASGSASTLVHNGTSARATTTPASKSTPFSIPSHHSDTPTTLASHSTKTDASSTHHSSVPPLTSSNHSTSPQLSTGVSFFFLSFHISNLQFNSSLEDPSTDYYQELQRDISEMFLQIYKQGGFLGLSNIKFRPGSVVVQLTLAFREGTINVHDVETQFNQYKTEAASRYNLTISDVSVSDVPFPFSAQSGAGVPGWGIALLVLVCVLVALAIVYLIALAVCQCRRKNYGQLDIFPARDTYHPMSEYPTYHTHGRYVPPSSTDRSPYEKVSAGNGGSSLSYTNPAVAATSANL
Consider B1, for which the “Target cell killing area under the curve (AUC)” value (“Target cell killing area” for short) worked out at 482.
Still for that read-out and setting: the figure for B2 is 501.
Still for that read-out and setting: the figure for B3 is 466.
On the same count and under the same terms, the figure for B4 is 498; for B5 it is 518.
For the molecule B6, the “Target cell killing area” value turned out to be 528.
Consider B7, for which the “Target cell killing area” value worked out at 503.
Still for that read-out and setting: the figure for B8 is 490; for B9 it is 542; for B10 it is 518.
